Results reported in article PMC12230644, “A Bacteriophage‐Derived Primase‐Helicase Orchestrates Plant Organellar DNA Replication” (Physiologia Plantarum, 2025).
Several values for one entry are separate records, joined by “and”; a condition that tells them apart may be missing. Equal entries are not always repeated.

B1: AtTwinkle (bacteriophage‐related primase‐helicase from Arabidopsis thaliana), processed form (enzyme, UniProt B5X582 92-709, looked up)
chain: TPVDTEVEADKRVVLSRLVTLRRKLAEQGVDAENCPPGQHSGLICPTCEGGNSGEKSLSLFIAPDGSSATWNCFRGKCGLKGGVRADGGLASADPIEKVERKITVEGIELEPLCDEIQDYFAARAISRKTLERNRVMQKRIGDEIVIAFTYWQRGELVSCKYRSLTKMFFQERKTRRILYGLDDIEKTSEVIIVEGEIDKLAMEEAGFLNCVSVPDGAPAKVSSKEIPSEDKDTKYKFLWNCNDYLKKASRIVIATDGDGPGQAMAEEIARRLGKERCWRVKWPKKSEDEHFKDANEVLMSKGPHLLKEAILDAEPYPILGLFSFKDFFDEIDAYYDRTHGHEYGVSTGWKNLDNLYSVVPGELTVVTGIPNSGKSEWIDAMLCNLNHSVGWKFALCSMENKVRDHARKLLEKHIKKPFFDADYGRSVQRMSVEEKDEGKKWLNDTFYPIRCEMDSLPSIDWVLERAKAAVLRYGIRGLVIDPYNELDHQRTPRQTETEYVSQMLTKIKRFSQHHSCHVWFVAHPKQLQHWDGGAPNLYDISGSAHFINKCDNGIIVHRNRDENAGPLDLVQIGVRKVRNKVAGQIGDAYLCYDRTTGSYSDSPVTPGMPERRSPKRY
notes: codon-optimised gene; The results call this construct 'full-length'; the methods give residues 92-709; The oligomer size is told differently in text (nonamer and a larger complex) and legend (hexamer), so copies is left empty; The methods name pET19b for cloning and pCRI1b-AtTwinkle for mutagenesis; also called plant Twinkle; full‐length AtTwinkle; source: E. coli BL21(DE3) with pKJ7 chaperones, …
B2: AtHelicaseΔ10 (AtHelicase lacking the last 10 amino acids) (domain or fragment)
chain: ILDAEPYPILGLFSFKDFFDEIDAYYDRTHGHEYGVSTGWKNLDNLYSVVPGELTVVTGIPNSGKSEWIDAMLCNLNHSVGWKFALCSMENKVRDHARKLLEKHIKKPFFDADYGRSVQRMSVEEKDEGKKWLNDTFYPIRCEMDSLPSIDWVLERAKAAVLRYGIRGLVIDPYNELDHQRTPRQTETEYVSQMLTKIKRFSQHHSCHVWFVAHPKQLQHWDGGAPNLYDISGSAHFINKCDNGIIVHRNRDENAGPLDLVQIGVRKVRNKVAGQIGDAYLCYDRTTGSYSDSPVTPG
B3: AtHelicase (helicase domain of AtTwinkle) (domain or fragment, Arabidopsis thaliana, UniProt B5X582 402-709, looked up)
chain: ILDAEPYPILGLFSFKDFFDEIDAYYDRTHGHEYGVSTGWKNLDNLYSVVPGELTVVTGIPNSGKSEWIDAMLCNLNHSVGWKFALCSMENKVRDHARKLLEKHIKKPFFDADYGRSVQRMSVEEKDEGKKWLNDTFYPIRCEMDSLPSIDWVLERAKAAVLRYGIRGLVIDPYNELDHQRTPRQTETEYVSQMLTKIKRFSQHHSCHVWFVAHPKQLQHWDGGAPNLYDISGSAHFINKCDNGIIVHRNRDENAGPLDLVQIGVRKVRNKVAGQIGDAYLCYDRTTGSYSDSPVTPGMPERRSPKRY
notes: AtTwinkle, Arabidopsis thaliana, AT1G30680, helicase domain, residues 402-709; Modified pET28-SUMO vector; also called helicase module of AtTwinkle; wild‐type AtHelicase; source: E. coli BL21(DE3) with pKJ7 chaperones, purified (Ni‐NTA, heparin, Superdex 200)
B4: replication fork OligoJ+OligoK+OligoL (mixed)
DNA 1: AGCTATGACCATGATTAC
DNA 2: AGCTACCATGCCTGCACGAATTAAGCAATTCGTAATCATGGTCATAGCT
DNA 3: CAACTGCTCCGATGCCTTACCGTGCTTAATTCGTGCAGGCATGGTAGCT

Columns and labels:
[1] = biological target: the molecule itself; experiment: SEC; Superdex 200 gel filtration column calibrated with thyroglobulin, γ‐globulin, ovalbumin and myoglobin; in the absence of metal ions and nucleotides; size of the oligomer from the apparent mass
[2] = biological target: AtPolIB (Arabidopsis thaliana organellar DNA polymerase IB) (Arabidopsis thaliana); experiment: MST; fluorescently labelled AtPolIB (His‐tag labelling kit) at constant concentration, AtHelicase or AtHelicase‐Δ10 titrated; PBS with 0.05% Tween‐20; NanoTemper Monolith NT.115p; no DNA
AtPolIA = biological target: T1, AtPolIA (Arabidopsis thaliana, UniProt F4I6M1 92-1050); experiment: EMSA; no AtTwinkle; EMSA on 8% polyacrylamide gel; binding buffer, pH and temperature not given in the material (helicase assays: 20 mM Bis-Tris-Propane pH 7.5, 10 mM MgCl2, 10 mM); settings: protein: recombinant; tags: Cy5-labeled; label: OligoJ 5'-Cy2; fork, strands 1:2 (18 bp) and 2:3 (27 bp); 4 nt gap on template; 22 nt 5' ssDNA tail on strand 3
T1 sequence: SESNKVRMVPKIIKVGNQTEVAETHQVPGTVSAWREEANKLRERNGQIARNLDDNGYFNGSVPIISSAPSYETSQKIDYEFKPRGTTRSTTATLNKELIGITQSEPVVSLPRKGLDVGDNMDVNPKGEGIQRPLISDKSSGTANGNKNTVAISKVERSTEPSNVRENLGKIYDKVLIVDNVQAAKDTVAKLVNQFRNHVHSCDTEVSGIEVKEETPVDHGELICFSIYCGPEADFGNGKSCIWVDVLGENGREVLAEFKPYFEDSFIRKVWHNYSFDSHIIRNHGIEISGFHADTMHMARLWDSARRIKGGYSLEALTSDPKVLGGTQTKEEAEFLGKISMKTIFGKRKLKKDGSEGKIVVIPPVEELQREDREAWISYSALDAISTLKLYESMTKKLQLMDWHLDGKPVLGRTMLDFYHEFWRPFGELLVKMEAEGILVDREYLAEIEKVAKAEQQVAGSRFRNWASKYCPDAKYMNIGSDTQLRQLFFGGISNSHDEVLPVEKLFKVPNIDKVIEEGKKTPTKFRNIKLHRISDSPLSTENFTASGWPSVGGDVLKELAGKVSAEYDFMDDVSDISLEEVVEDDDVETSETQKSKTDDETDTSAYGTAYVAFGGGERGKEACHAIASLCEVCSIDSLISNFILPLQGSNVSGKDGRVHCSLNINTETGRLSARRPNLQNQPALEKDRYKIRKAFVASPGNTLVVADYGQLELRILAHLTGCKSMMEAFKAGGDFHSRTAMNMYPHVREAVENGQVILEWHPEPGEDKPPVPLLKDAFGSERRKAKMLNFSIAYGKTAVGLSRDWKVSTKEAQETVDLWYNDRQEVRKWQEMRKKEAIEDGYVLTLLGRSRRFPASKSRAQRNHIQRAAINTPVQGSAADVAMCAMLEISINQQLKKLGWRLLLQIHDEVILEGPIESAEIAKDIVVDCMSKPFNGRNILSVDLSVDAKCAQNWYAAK

AtTwinkle = biological target: T2, AtTwinkle (Arabidopsis thaliana, UniProt B5X582 92-709); experiment: EMSA; no polymerase; EMSA on 8% polyacrylamide gel; binding buffer, pH and temperature not given in the material (helicase assays: 20 mM Bis-Tris-Propane pH 7.5, 10 mM MgCl2, 10 mM); settings: protein: recombinant; tags: His tag (pET19b; mutagenesis section names pCRI1b-AtTwinkle); chain copies: 6; label: OligoJ 5'-Cy2; fork, strands 1:2 (18 bp) and 2:3 (27 bp); 4 nt gap on template; 22 nt 5' ssDNA tail on strand 3
T2 sequence: B1 chain

AtTwinkle;AtPolIA = AtTwinkle;AtPolIA (Arabidopsis thaliana;Arabidopsis …, UniProt B5X582;F4I6M1 92-709;92-1050, |); experiment: EMSA; constant AtPolIA, high AtTwinkle; Cy2/Cy5 (orange) band at gel top, AtPolIA-DNA band disappears; EMSA on 8% polyacrylamide gel; binding buffer, pH and temperature not given in the material (helicase assays: 20 mM Bis-Tris-Propane pH 7.5, 10 mM MgCl2, 10 mM); settings: protein: recombinant;recombinant; tags: His tag (pET19b; mutagenesis section names pCRI1b-AtTwinkle);Cy5-labeled; label: OligoJ 5'-Cy2; fork, strands 1:2 (18 bp) and 2:3 (27 bp); 4 nt gap on template; 22 nt 5' ssDNA tail on strand 3

Binder	stoichiometry N [1]	Kd [2] [nM]	binding result (AtPolIA)	binding result (AtTwinkle)	binding result (AtTwinkle;AtPolIA)
B1	9 and 6	–	–	–	–
B2	–	3640	–	–	–
B3	6	210	–	–	–
B4	–	–	binds	binds	binds
